One data set deals with Hfq:E18A-S38W (Escherichia coli, UniProt P0A6X3 1-102, E18A;S38W). Description: tryptophan fluorescence quenching.
Another data set deals with Hfq:D9A-S38W (Escherichia coli, UniProt P0A6X3 1-102, D9A;S38W). Description: tryptophan fluorescence quenching.

B1: oligo C (ssRNA)
RNA: GUGGUCAGUCGAGUGG
On to B1, for which the binding result with Hfq:E18A-S38W and in the data set with Hfq:D9A-S38W was “binds” each time.

(Values after paper PMC4624489.)
